We go through four molecules from patent US10415067B2, “Method for the enzymatic production of D-erythrose and acetyl phosphate” (SCIENTIST OF FORTUNE S.A., priority 2014, dated 2019).

Data set [1] has as its target Lactococcus lactis subsp. lactis (strain KF147) phosphoketolase, Uniprot A9QST6, SEQ ID NO: 3 (Lactococcus lactis, UniProt Q9CFH4). Description: Kinetics of acetyl phosphate formation from D-fructose (hydroxamate-based colorimetric assay). Format: biochemical. The conditions noted are these: D-fructose 0-500 mM, 50 mM sodium phosphate, pH 7.5, 37° C., 3 mg/ml enzyme. The source says: (§1) The sequences of phosphoketolases inferred from the genomes of prokaryotic organisms were generated by oligonucleotide concatenation to fit the codon usage of E. coli (genes were commercially synthesized by GeneArt®). A stretch of 6 histidine codons was inserted after the methionine initiation codon to provide an affinity tag for purification. The genes thus synthesized were cloned in a modified pUC18 expression vector (New England Biolabs) containing a modified Multiple Cloning Sites (MCS). The genes of interest were cloned at PacI and NotI restriction sites. Competent MG1655 E. coli cells were transformed with these vectors using standard heat shock procedure. The transformed cells were grown in LB-ampicillin medium for 24 h at 30° C., 160 rpm shaking.
(§2) The pellets from 200 ml of cultured cells were thawed on ice and resuspended in 3 ml of 50 mM Tris-HCl pH 7.5 containing 300 mM NaCl, 5 mM MgCl2, 1 mM DTT and 10 mM Imidazole. 10 μl of lysonase (Merck) was added. […] Protein concentrations were quantified by direct UV 280 nm measurement on the NanoDrop 1000 spectrophotometer (Thermo Scientific). […]
(§3) The composition of enzymatic reactions was identical to that described above. Kinetic parameters were determined using a range of D-fructose concentrations (0-500 mM) and a constant concentration of sodium phosphate (50 mM). […]

Data set [2] concerns the target T1, Bifidobacterium pseudolongum subsp. globosum phosphoketolase, Uniprot Q6R2Q6, SEQ ID NO: 1 (Bifidobacterium pseudolongum, UniProt Q6R2Q6).
T1 sequence (Q6R2Q6 1-825): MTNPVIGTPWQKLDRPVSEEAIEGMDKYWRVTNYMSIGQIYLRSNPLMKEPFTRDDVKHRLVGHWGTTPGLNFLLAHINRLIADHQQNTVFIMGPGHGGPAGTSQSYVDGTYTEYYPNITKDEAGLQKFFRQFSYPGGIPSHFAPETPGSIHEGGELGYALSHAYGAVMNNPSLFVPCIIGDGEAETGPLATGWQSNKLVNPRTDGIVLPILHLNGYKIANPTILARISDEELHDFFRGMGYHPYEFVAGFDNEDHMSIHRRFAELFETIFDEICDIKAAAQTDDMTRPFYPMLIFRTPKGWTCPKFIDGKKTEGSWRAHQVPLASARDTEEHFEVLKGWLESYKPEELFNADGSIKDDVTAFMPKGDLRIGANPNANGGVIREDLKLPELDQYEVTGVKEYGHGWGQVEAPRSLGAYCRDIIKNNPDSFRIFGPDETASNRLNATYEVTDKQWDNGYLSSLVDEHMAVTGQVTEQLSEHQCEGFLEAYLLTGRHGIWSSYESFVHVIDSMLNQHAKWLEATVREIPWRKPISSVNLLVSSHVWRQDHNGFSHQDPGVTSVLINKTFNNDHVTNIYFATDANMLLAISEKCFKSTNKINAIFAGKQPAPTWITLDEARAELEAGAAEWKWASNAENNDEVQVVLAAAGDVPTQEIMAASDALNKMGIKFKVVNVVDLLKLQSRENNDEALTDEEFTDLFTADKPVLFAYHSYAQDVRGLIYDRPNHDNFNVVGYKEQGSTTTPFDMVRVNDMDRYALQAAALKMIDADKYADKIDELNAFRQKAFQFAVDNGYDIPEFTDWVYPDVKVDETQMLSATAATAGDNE
The data set is described as above. Format: biochemical. The settings on record: D-fructose 0-500 mM, 50 mM sodium phosphate, pH 7.5, 37° C., 3 mg/ml enzyme.
Text: as §1, §2, §3

Substrate in data set [3]: O=CCO
The experiment in a line: Kinetics of acetyl phosphate formation from glycolaldehyde (hydroxamate-based colorimetric assay). Format: biochemical, Clostridium acetobutylicum (strain ATCC 824). The settings on record: other: glycolaldehyde 0-100 mM, 50 mM sodium phosphate, pH 7.5, 37° C., 3 mg/ml enzyme.
Text: as §1, §2
(§4) 0.1 ml of hydroxylamine hydrochloride (2 M, pH 6.5) was added to 0.1 ml of reaction mixture. […] The samples were further clarified by centrifugation and the absorbance of ferric acetyl-hydroxamate complex was measured at 505 nm. […]

Substrate in data set [4]: O=CCO
Described as above. The format is biochemical, Lactococcus lactis subsp. lactis (strain KF147). The conditions noted are these: other: glycolaldehyde 0-100 mM, 50 mM sodium phosphate, pH 7.5, 37° C., 3 mg/ml enzyme.
Text: as §1, §2, §4

Substrate in data set [5]: O=CCO
The description is as above. The format is biochemical, Bifidobacterium pseudolongum subsp. globosum. The settings on record: other: glycolaldehyde 0-100 mM, 50 mM sodium phosphate, pH 7.5, 37° C., 3 mg/ml enzyme.
Text: as §1, §2, §4

In the case of `OCC1(O)OC[C@@H](O)[C@@H](O)[C@@H]1O` (stereo partly drawn) [D-fructose], the kcat (as a rule, the number of substrate molecules converted per active site and unit of time at saturation) was found to be 0.11 ± 0.04 s⁻¹ in data set [1] and 0.10 ± 0.02 s⁻¹ in data set [2].

B1: Clostridium acetobutylicum (strain ATCC 824) phosphoketolase, Uniprot Q97JE3, SEQ ID NO: 2 (Clostridium acetobutylicum ATCC 824) (protein)
chain: MQSIIGKHKDEGKITPEYLKKIDAYWRAANFISVGQLYLLDNPLLREPLKPEHLKRKVVGHWGTIPGQNFIYAHLNRVIKKYDLDMIYVSGPGHGGQVMVSNSYLDGTYSEVYPNVSRDLNGLKKLCKQFSFPGGISSHMAPETPGSINEGGELGYSLAHSFGAVFDNPDLITACVVGDGEAETGPLATSWQANKFLNPVTDGAVLPILHLNGYKISNPTVLSRIPKDELEKFFEGNGWKPYFVEGEDPETMHKLMAETLDIVTEEILNIQKNARENNDCSRPKWPMIVLRTPKGWTGPKFVDGVPNEGSFRAHQVPLAVDRYHTENLDQLEEWLKSYKPEELFDENYRLIPELEELTPKGNKRMAANLHANGGLLLRELRTPDFRDYAVDVPTPGSTVKQDMIELGKYVRDVVKLNEDTRNFRIFGPDETMSNRLWAVFEGTKRQWLSEIKEPNDEFLSNDGRIVDSMLSEHLCEGWLEGYLLTGRHGFFASYEAFLRIVDSMITQHGKWLKVTSQLPWRKDIASLNLIATSNVWQQDHNGYTHQDPGLLGHIVDKKPEIVRAYLPADANTLLAVFDKCLHTKHKINLLVTSKHPRQQWLTMDQAVKHVEQGISIWDWASNDKGQEPDVVIASCGDTPTLEALAAVTILHEHLPELKVRFVNVVDMMKLLPENEHPHGLSDKDYNALFTTDKPVIFAFHGFAHLINQLTYHRENRNLHVHGYMEEGTITTPFDMRVQNKLDRFNLVKDVVENLPQLGNRGAHLVQLMNDKLVEHNQYIREVGEDLPEITNWQWHV
With B1, in data set [3], the Km entry is reported as “≈30 mM mM” and the kcat was 0.08 s⁻¹.

B2: Lactococcus lactis subsp. lactis (strain KF147) phosphoketolase, Uniprot A9QST6, SEQ ID NO: 3 (Lactococcus lactis subsp. lactis Il1403) (protein)
chain: MTEYNSEAYLKKLDKWWRAATYLGAGMIFLKENPLFSVTGTPIKAENLKANPIGHWGTVSGQTFLYAHANRLINKYNQKMFYMGGPGHGGQAMVVPSYLDGSYTEAYPEITQDLEGMSRLFKRFSFPGGIGSHMTAQTPGSLHEGGELGYVLSHATGAILDQPEQIAFAVVGDGEAETGPLMTSWHSIKFINPKNDGAILPILDLNGFKISNPTLFARTSDVDIRKFFEGLGYSPRYIENDDIHDYMAYHKLAAEVFDKAIEDIHQIQKDAREDNRYQNGEIPAWPIVIARLPKGWGGPRYNDWSGPKFDGKGMPIEHSFRAHQVPLPLSSKNMGTLPEFVKWMTSYQPETLFNADGSLKEELRDFAPKGEMRMASNPVTNGGVDYSNLVLPDWQEFANPISENNRGKLLPDTNDNMDMNVLSKYFAEIVKLNPTRFRLFGPDETMSNRFWEMFKVTNRQWMQVIKNPNDEFISPEGRIIDSQLSEHQAEGWLEGYTLTGRTGVFASYESFLRVVDSMLTQHFKWIRQAADQKWRHDYPSLNVISTSTVFQQDHNGYTHQDPGMLTHLAEKKSDFIRQYLPADGNTLLAVFDRAFQDRSKINHIVASKQPRQQWFTKEEAEKLATDGIATIDWASTAKDGEAVDLVFASAGAEPTIETLAALHLVNEVFPQAKFRYVNVVELGRLQKKKGALNQERELSDEEFEKYFGPSGTPVIFGFHGYEDLIESIFYQRGHDGLIVHGYREDGDITTTYDMRVYSELDRFHQAIDAMQVLYVNRKVNQGLAKAFIDRMERTLVKHFEVTRNEGVDIPEFTEWVWSDLKK
Regarding B2, in data set [4], the Km entry is given as “≈25 mM mM” and the kcat stood at 0.05 s⁻¹.

B3: Bifidobacterium pseudolongum subsp. globosum phosphoketolase, Uniprot Q6R2Q6, SEQ ID NO: 1 (Bifidobacterium pseudolongum subsp. globosum) (protein)
chain: MTNPVIGTPWQKLDRPVSEEAIEGMDKYWRVTNYMSIGQIYLRSNPLMKEPFTRDDVKHRLVGHWGTTPGLNFLLAHINRLIADHQQNTVFIMGPGHGGPAGTSQSYVDGTYTEYYPNITKDEAGLQKFFRQFSYPGGIPSHFAPETPGSIHEGGELGYALSHAYGAVMNNPSLFVPCIIGDGEAETGPLATGWQSNKLVNPRTDGIVLPILHLNGYKIANPTILARISDEELHDFFRGMGYHPYEFVAGFDNEDHMSIHRRFAELFETIFDEICDIKAAAQTDDMTRPFYPMLIFRTPKGWTCPKFIDGKKTEGSWRAHQVPLASARDTEEHFEVLKGWLESYKPEELFNADGSIKDDVTAFMPKGDLRIGANPNANGGVIREDLKLPELDQYEVTGVKEYGHGWGQVEAPRSLGAYCRDIIKNNPDSFRIFGPDETASNRLNATYEVTDKQWDNGYLSSLVDEHMAVTGQVTEQLSEHQCEGFLEAYLLTGRHGIWSSYESFVHVIDSMLNQHAKWLEATVREIPWRKPISSVNLLVSSHVWRQDHNGFSHQDPGVTSVLINKTFNNDHVTNIYFATDANMLLAISEKCFKSTNKINAIFAGKQPAPTWITLDEARAELEAGAAEWKWASNAENNDEVQVVLAAAGDVPTQEIMAASDALNKMGIKFKVVNVVDLLKLQSRENNDEALTDEEFTDLFTADKPVLFAYHSYAQDVRGLIYDRPNHDNFNVVGYKEQGSTTTPFDMVRVNDMDRYALQAAALKMIDADKYADKIDELNAFRQKAFQFAVDNGYDIPEFTDWVYPDVKVDETQMLSATAATAGDNE
In the case of B3, in data set [5], the Km result is given as “≈20 mM mM” and the turnover number (kcat) came out at 0.07 s⁻¹.
